Where two headings read alike, the source gives them in different places. *1 amine or outer side, *2 acyl side, *3 side chain or, on linkers, in order; H or OH if unused. Where a SMILES comes first, the peptide text is derived from it. Bridges are numbered along the chain shown (N, C = ends). Roman numbers before positions name the chains, in order. Where no end group is shown, it is not given here. [ ]: non-standard residue; d: D form. X1 = O=C(CCOCCOCCOCCOCCOCCOCCOCCOCCOCCOCCOCCOCCOCCOCCOCCOCCOCCOCCOCCOCCOCCC(=O)[*:2])[*:1]; Lys(Me2) = CN(C)CCCC[C@H](N)C(=O)O

Experimental findings from article PMC4869123 (Scientific Reports, 2016) are described below.

One test has as its target T1, murine IL-17A (Mus musculus, UniProt Q62386).
T1 construct: host or cells: added to MLE-12 mouse epithelial cells (ATCC CRL2110)
T1 sequence (Q62386 26-158): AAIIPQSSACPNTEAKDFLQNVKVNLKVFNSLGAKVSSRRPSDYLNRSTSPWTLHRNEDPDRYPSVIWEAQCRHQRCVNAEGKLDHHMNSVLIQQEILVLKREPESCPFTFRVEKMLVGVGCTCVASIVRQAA
Kind of test: Murine functional cell assay, MLE-12 mouse epithelial cells, KC production. In kind it is cell-based. The protocol: […]. For inhibitor screen, human BJ fibroblast cells (ATCC CRL2522) (American Type Culture Collection, VA) were used. For mouse cell based assay MLE-12 mouse epithelial cells (ATCC CRL2110) were used. Both cell lines were maintained in ATCC recommended media. Cells were seeded at 5 × 10^3 cells/well into 96-well flat-bottom microtiter plates in which peptides that had been pre-diluted with cytokines (1 ng/mL for human IL-17A or 15 ng/mL for mouse IL-17A) in culture medium. Cells were incubated at 37 °C for 16–24 hrs, and supernatants were collected and analyzed by ELISA for either human CXCL1/GRO-α (R&D Systems DY275) or mouse CXCL1/KC (R&D Systems DY453).
Figure S4. Inhibition of IL-17A induced murine keratinocyte-derived cytokine (KC). MLE-12 mouse epithelial cellswere cultured in the presence of IL-17A […]
which time cell culture were removed for analysis of KCproduction.Data are mean and error bars of +/-standard deviation of duplicatedmeasurements […]
(1 picture or pasted object on this page, not shown here)

The target of test [1] is T2, human IL-17A (Homo sapiens, UniProt Q16552).
T2 construct: host or cells: added to BJ human fibroblasts (ATCC CRL2522)
Kind of test: BJ human fibroblast cell assay, IL-17A stimulated GRO-α production. In kind it is cell-based. The note with it: BJ human fibroblast cells, 1 ng/ml human IL-17A. The source says: For inhibitor screen, human BJ fibroblast cells (ATCC CRL2522) (American Type Culture Collection, VA) were used. For mouse cell based assay MLE-12 mouse epithelial cells (ATCC CRL2110) were used. Both cell lines were maintained in ATCC recommended media.

Test [2] concerns the target T3, human IL-17A (human, UniProt Q16552 24-155).
For test [3], the target named is T4, biotinylated mouse IL-17A (mouse, UniProt Q62386 26-158, biotinylated).
T4 sequence (looked up): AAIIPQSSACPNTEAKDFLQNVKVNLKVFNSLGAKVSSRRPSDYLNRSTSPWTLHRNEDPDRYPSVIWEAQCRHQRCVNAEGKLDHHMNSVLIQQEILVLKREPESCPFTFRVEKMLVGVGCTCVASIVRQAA
Kind of test: cell-based or functional assay.

The target of test [4] is T4, biotinylated mouse IL-17A. Briefly: SPR; Biacore 3000; biotinylated protein captured on a streptavidin chip (about 2500 to 3500 RUs); peptide injected at 50 μl/min, 180 s association, at least 600 s dissociation; 10 mM HEPES pH 7.4, 150 mM NaCl, 0.01% P20, 3% DMSO; single site model, global fit. As to conditions: both partners purified. A general note: SPR reads the build-up and loss of mass on a sensor chip optically.

For test [5], the target named is T5, biotinylated recombinant human IL-17A (rhIL-17, R&D Systems #317-ILB) (human, UniProt Q16552 24-155, biotinylated).
T5 construct: IL-17A, human, recombinant; also called Biotinylated IL-17A; source: bought: R&D Systems
The note with it: both partners purified.

Test [6] has as its target T3, human IL-17A. Kind of test: cell-based or functional assay.

T3 sequence (Q16552 24-155): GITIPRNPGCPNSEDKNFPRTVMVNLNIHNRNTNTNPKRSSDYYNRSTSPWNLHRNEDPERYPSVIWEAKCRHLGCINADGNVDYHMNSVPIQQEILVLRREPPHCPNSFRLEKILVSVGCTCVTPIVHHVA
T5 sequence (Q16552 24-155): as above
T2 sequence (Q16552 24-155): as above

In the case of Ac-IHVTIPADLWDWINK-NH2 [Compound 30], at murine IL-17A, the half-inhibitory concentration (IC50) is over 1000 nM.
For `CC[C@H](C)[C@H](NC(C)=O)C(=O)N[C@H](C(=O)N[C@H](C(=O)N[C@H](C(=O)N[C@H](C(=O)N1CCC[C@H]1C(=O)N[C@@H](C)C(=O)N[C@@H](CC(=O)O)C(=O)N[C@@H](CC(C)C)C(=O)N[C@@H](Cc1c[nH]c2ccccc12)C(=O)N[C@@H](CC(=O)O)C(=O)N[C@@H](Cc1c[nH]c2ccccc12)C(=O)N[C@H](C(=O)N[C@@H](CCCCNC(=O)CCOCCOCCOCCOCCOCCOCCOCCOCCOCCOCCOCCOCCOCCOCCOCCOCCOCCOCCOCCOCCOCCC(=O)NCCCC[C@H](NC(=O)[C@@H](NC(=O)[C@H](Cc1c[nH]c2ccccc12)NC(=O)[C@H](CC(=O)O)NC(=O)[C@H](Cc1c[nH]c2ccccc12)NC(=O)[C@H](CC(C)C)NC(=O)[C@H](CC(=O)O)NC(=O)[C@H](C)NC(=O)[C@@H]1CCCN1C(=O)[C@@H](NC(=O)[C@@H](NC(=O)[C@@H](NC(=O)[C@@H](NC(=O)[C@@H](NC(C)=O)[C@@H](C)CC)[C@@H](C)O)C(C)C)[C@@H](C)O)[C@@H](C)CC)[C@@H](C)CC)C(=O)N[C@@H](CCCCN(C)C)C(N)=O)C(=O)N[C@@H](CCCCN(C)C)C(N)=O)[C@@H](C)CC)[C@@H](C)CC)[C@@H](C)O)C(C)C)[C@@H](C)O` [Compound 45] (I: Ac-ITVTIPADLWDWIK[Lys(Me2)]-NH2 / II: Ac-ITVTIPADLWDWIK[Lys(Me2)]-NH2; linker I:14-II:14 via X1), the IC50 was 0.1 nM against human IL-17A [1] and 41 nM at murine IL-17A (MLE-12 cells, 15 ng/ml murine IL-17A, KC production, read-out: IC50, murine IL-17A).

B1: peptide 36 (peptide)
peptide: Ac-IHVTIPADLWDWI
modifications: not fully specified (C-terminus)
For B1, the Cell IC50: inhibition of IL-17A signaling in BJ human fibroblast cells stimulated with 1 ng/ml IL-17A in the test with human IL-17A [2] was 183 nM.

B2: high affinity IL-17A peptide antagonist (HAP) (peptide)
peptide: Ac-IHVTIPADLWDWINK
notes: 15-residue peptide that combines the key residues found by SAR; made on Rink resin; a C-terminal amide is surmised; also called 30; peptide 30; source: synthetic peptide
B2: in test [3], the “IC50 in a murine functional cell assay using 15 ng/ml murine IL-17A (inhibition of murine IL-17A signaling)” value is over 1000 nM. The same molecule had a Kd in test [4] of 30.1 ± 0.1 nM.

B3: peptide 1 (peptide)
peptide: Ac-IVVTMPADLWDWIKA
modifications: not fully specified (C-terminus)
notes: 15-mer linear peptide from phage display; made on Rink resin; a C-terminal amide is surmised; also called phage peptide 1; source: synthetic peptide
With B3, the concentration for half-maximal inhibition (IC50) in test [5] came out at 80 nM. Moreover, the “Cell IC50: inhibition of GRO-α production in BJ human fibroblast cells stimulated with 1 ng/ml IL-17A” value with human IL-17A [6] came to 370 nM.

B4: peptide 24 (peptide)
peptide: Ac-IVVTIPADLWDWIRA
modifications: not fully specified (C-terminus)
notes: analogue of peptide 2, I at position 5; made on Rink resin; a C-terminal amide is surmised; source: synthetic peptide
Consider B4, for which, in test [5], the IC50 came out at 3 nM. For the same molecule, the “Cell IC50: inhibition of GRO-α production in BJ human fibroblast cells stimulated with 1 ng/ml IL-17A” value with human IL-17A [6] was 18 nM.

For orientation: IC50 means the concentration at which inhibition is half-maximal. The Kd is a measure of binding affinity in units of concentration. A high value points to a looser complex.
